Numbered stars: 1 amine (or outer) side, 2 acyl side, 3 side chain; on linkers, the order of the positions; unused ones are H or OH. Square brackets hold non-standard residues; d marks the D form. Side chains are listed from the residue outwards. Ends that are not written are not given here. * marks the point of attachment. C18 diacid = O=C(O)CCCCCCCCCCCCCCCCC(=O)*; γGlu = O=C(O)[C@H](CCC(=O)[*:2])N[*:1]; AEEA = NCCOCCOCC(=O)O; Aib = CC(C)(N)C(=O)O
B1: N^ε28-[(4S)-4-carboxy-4-[[(4S)-4-carboxy-4-[[(4S)-4-carboxy-4-(17-carboxyheptadecanoylamino)butanoyl]amino]butanoyl]amino]butanoyl]-[Aib2,Leu10,Arg12,Ala16,Arg2 … (peptide)
peptide: H[Aib]QGTFTSDLSRYLDARRARDFVQWLLK([γGlu-γGlu-γGlu-C18 diacid])T-NH2
modifications: N-terminus assumed
SMILES: CC(C)C[C@H](NC(=O)[C@H](Cc1ccc(O)cc1)NC(=O)[C@H](CCCNC(=N)N)NC(=O)[C@H](CO)NC(=O)[C@H](CC(C)C)NC(=O)[C@H](CC(=O)O)NC(=O)[C@H](CO)NC(=O)[C@@H](NC(=O)[C@H](Cc1ccccc1)NC(=O)[C@@H](NC(=O)CNC(=O)[C@H](CCC(N)=O)NC(=O)C(C)(C)NC(=O)[C@@H](N)Cc1c[nH]cn1)[C@@H](C)O)[C@@H](C)O)C(=O)N[C@@H](CC(=O)O)C(=O)N[C@@H](C)C(=O)N[C@@H](CCCNC(=N)N)C(=O)N[C@@H](CCCNC(=N)N)C(=O)N[C@@H](C)C(=O)N[C@@H](CCCNC(=N)N)C(=O)N[C@@H](CC(=O)O)C(=O)N[C@@H](Cc1ccccc1)C(=O)N[C@H](C(=O)N[C@@H](CCC(N)=O)C(=O)N[C@@H](Cc1c[nH]c2ccccc12)C(=O)N[C@@H](CC(C)C)C(=O)N[C@@H](CC(C)C)C(=O)N[C@@H](CCCCNC(=O)CC[C@H](NC(=O)CC[C@H](NC(=O)CC[C@H](NC(=O)CCCCCCCCCCCCCCCCC(=O)O)C(=O)O)C(=O)O)C(=O)O)C(=O)N[C@H](C(N)=O)[C@@H](C)O)C(C)C
B2: N^ε29-[(4S)-4-carboxy-4-[[2-[2-[2-[[2-[2-[2-[[(4S)-4-carboxy-4-[[(4S)-4-carboxy-4-(17-carboxyheptadecanoylamino)butanoyl]amino]butanoyl]amino]ethoxy]ethoxy]acet … (peptide)
peptide: H[Aib]QGTFTSDLSKYLESRRAREFVQWLLNK([γGlu-AEEA-AEEA-γGlu-γGlu-C18 diacid])-NH2
modifications: N-terminus assumed
SMILES: CC(C)C[C@H](NC(=O)[C@H](CC(C)C)NC(=O)[C@H](Cc1c[nH]c2ccccc12)NC(=O)[C@H](CCC(N)=O)NC(=O)[C@@H](NC(=O)[C@H](Cc1ccccc1)NC(=O)[C@H](CCC(=O)O)NC(=O)[C@H](CCCNC(=N)N)NC(=O)[C@H](C)NC(=O)[C@H](CCCNC(=N)N)NC(=O)[C@H](CCCNC(=N)N)NC(=O)[C@H](CO)NC(=O)[C@H](CCC(=O)O)NC(=O)[C@H](CC(C)C)NC(=O)[C@H](Cc1ccc(O)cc1)NC(=O)[C@H](CCCCN)NC(=O)[C@H](CO)NC(=O)[C@H](CC(C)C)NC(=O)[C@H](CC(=O)O)NC(=O)[C@H](CO)NC(=O)[C@@H](NC(=O)[C@H](Cc1ccccc1)NC(=O)[C@@H](NC(=O)CNC(=O)[C@H](CCC(N)=O)NC(=O)C(C)(C)NC(=O)[C@@H](N)Cc1c[nH]cn1)[C@@H](C)O)[C@@H](C)O)C(C)C)C(=O)N[C@@H](CC(N)=O)C(=O)N[C@@H](CCCCNC(=O)CC[C@H](NC(=O)COCCOCCNC(=O)COCCOCCNC(=O)CC[C@H](NC(=O)CC[C@H](NC(=O)CCCCCCCCCCCCCCCCC(=O)O)C(=O)O)C(=O)O)C(=O)O)C(N)=O
B3: N^ε29-[(4S)-4-carboxy-4-[[(4S)-4-carboxy-4-[[2-[2-[2-[[2-[2-[2-[[(4S)-4-carboxy-4-(17-carboxyheptadecanoylamino)butanoyl]amino]ethoxy]ethoxy]acetyl]amino]ethoxy … (peptide)
peptide: H[Aib]QGTFTSDLSKYLDSKAAQEFVQWLLNK([γGlu-γGlu-AEEA-AEEA-γGlu-C18 diacid])-NH2
modifications: N-terminus assumed
SMILES: CC(C)C[C@H](NC(=O)[C@H](CC(C)C)NC(=O)[C@H](Cc1c[nH]c2ccccc12)NC(=O)[C@H](CCC(N)=O)NC(=O)[C@@H](NC(=O)[C@H](Cc1ccccc1)NC(=O)[C@H](CCC(=O)O)NC(=O)[C@H](CCC(N)=O)NC(=O)[C@H](C)NC(=O)[C@H](C)NC(=O)[C@H](CCCCN)NC(=O)[C@H](CO)NC(=O)[C@H](CC(=O)O)NC(=O)[C@H](CC(C)C)NC(=O)[C@H](Cc1ccc(O)cc1)NC(=O)[C@H](CCCCN)NC(=O)[C@H](CO)NC(=O)[C@H](CC(C)C)NC(=O)[C@H](CC(=O)O)NC(=O)[C@H](CO)NC(=O)[C@@H](NC(=O)[C@H](Cc1ccccc1)NC(=O)[C@@H](NC(=O)CNC(=O)[C@H](CCC(N)=O)NC(=O)C(C)(C)NC(=O)[C@@H](N)Cc1c[nH]cn1)[C@@H](C)O)[C@@H](C)O)C(C)C)C(=O)N[C@@H](CC(N)=O)C(=O)N[C@@H](CCCCNC(=O)CC[C@H](NC(=O)CC[C@H](NC(=O)COCCOCCNC(=O)COCCOCCNC(=O)CC[C@H](NC(=O)CCCCCCCCCCCCCCCCC(=O)O)C(=O)O)C(=O)O)C(=O)O)C(N)=O
B4: N^ε29-[(4S)-4-carboxy-4-[[2-[2-[2-[[2-[2-[2-[[(4S)-4-carboxy-4-[[(4S)-4-carboxy-4-(17-carboxyheptadecanoylamino)butanoyl]amino]butanoyl]amino]ethoxy]ethoxy]acet … (peptide)
peptide: H[Aib]QGTFTSDLSKYLDKRRAREFVAWLLNT-NH2
modifications: not fully specified (residue 16)
B5: N^ε29-[(4S)-4-carboxy-4-[[(4S)-4-carboxy-4-[[2-[2-[2-[[2-[2-[2-[[(4S)-4-carboxy-4-(17-carboxyheptadecanoylamino)butanoyl]amino]ethoxy]ethoxy]acetyl]amino]ethoxy … (peptide)
peptide: H[Aib]QGTFTSDLSKYLDARRARDFVQWLLNK([γGlu-γGlu-AEEA-AEEA-γGlu-C18 diacid])-NH2
modifications: N-terminus assumed
SMILES: CC(C)C[C@H](NC(=O)[C@H](Cc1ccc(O)cc1)NC(=O)[C@H](CCCCN)NC(=O)[C@H](CO)NC(=O)[C@H](CC(C)C)NC(=O)[C@H](CC(=O)O)NC(=O)[C@H](CO)NC(=O)[C@@H](NC(=O)[C@H](Cc1ccccc1)NC(=O)[C@@H](NC(=O)CNC(=O)[C@H](CCC(N)=O)NC(=O)C(C)(C)NC(=O)[C@@H](N)Cc1c[nH]cn1)[C@@H](C)O)[C@@H](C)O)C(=O)N[C@@H](CC(=O)O)C(=O)N[C@@H](C)C(=O)N[C@@H](CCCNC(=N)N)C(=O)N[C@@H](CCCNC(=N)N)C(=O)N[C@@H](C)C(=O)N[C@@H](CCCNC(=N)N)C(=O)N[C@@H](CC(=O)O)C(=O)N[C@@H](Cc1ccccc1)C(=O)N[C@H](C(=O)N[C@@H](CCC(N)=O)C(=O)N[C@@H](Cc1c[nH]c2ccccc12)C(=O)N[C@@H](CC(C)C)C(=O)N[C@@H](CC(C)C)C(=O)N[C@@H](CC(N)=O)C(=O)N[C@@H](CCCCNC(=O)CC[C@H](NC(=O)CC[C@H](NC(=O)COCCOCCNC(=O)COCCOCCNC(=O)CC[C@H](NC(=O)CCCCCCCCCCCCCCCCC(=O)O)C(=O)O)C(=O)O)C(=O)O)C(N)=O)C(C)C
B6: N^ε29-[(4S)-4-carboxy-4-[[(4S)-4-carboxy-4-[[2-[2-[2-[[2-[2-[2-[[(4S)-4-carboxy-4-(17-carboxyheptadecanoylamino)butanoyl]amino]ethoxy]ethoxy]acetyl]amino]ethoxy … (peptide)
peptide: H[Aib]QGTFTSDLSKYLDARRARDFVQWLLSK([γGlu-γGlu-AEEA-AEEA-γGlu-C18 diacid])-NH2
modifications: N-terminus assumed
SMILES: CC(C)C[C@H](NC(=O)[C@H](Cc1ccc(O)cc1)NC(=O)[C@H](CCCCN)NC(=O)[C@H](CO)NC(=O)[C@H](CC(C)C)NC(=O)[C@H](CC(=O)O)NC(=O)[C@H](CO)NC(=O)[C@@H](NC(=O)[C@H](Cc1ccccc1)NC(=O)[C@@H](NC(=O)CNC(=O)[C@H](CCC(N)=O)NC(=O)C(C)(C)NC(=O)[C@@H](N)Cc1c[nH]cn1)[C@@H](C)O)[C@@H](C)O)C(=O)N[C@@H](CC(=O)O)C(=O)N[C@@H](C)C(=O)N[C@@H](CCCNC(=N)N)C(=O)N[C@@H](CCCNC(=N)N)C(=O)N[C@@H](C)C(=O)N[C@@H](CCCNC(=N)N)C(=O)N[C@@H](CC(=O)O)C(=O)N[C@@H](Cc1ccccc1)C(=O)N[C@H](C(=O)N[C@@H](CCC(N)=O)C(=O)N[C@@H](Cc1c[nH]c2ccccc12)C(=O)N[C@@H](CC(C)C)C(=O)N[C@@H](CC(C)C)C(=O)N[C@@H](CO)C(=O)N[C@@H](CCCCNC(=O)CC[C@H](NC(=O)CC[C@H](NC(=O)COCCOCCNC(=O)COCCOCCNC(=O)CC[C@H](NC(=O)CCCCCCCCCCCCCCCCC(=O)O)C(=O)O)C(=O)O)C(=O)O)C(N)=O)C(C)C
B7: N^ε29-[(4S)-4-carboxy-4-[[(4S)-4-carboxy-4-[[2-[2-[2-[[2-[2-[2-[[(4S)-4-carboxy-4-(17-carboxyheptadecanoylamino)butanoyl]amino]ethoxy]ethoxy]acetyl]amino]ethoxy … (peptide)
peptide: H[Aib]QGTFTSDLSKYLDSRAAREFVQWLLNK([γGlu-γGlu-AEEA-AEEA-γGlu-C18 diacid])-NH2
modifications: N-terminus assumed
SMILES: CC(C)C[C@H](NC(=O)[C@H](CC(C)C)NC(=O)[C@H](Cc1c[nH]c2ccccc12)NC(=O)[C@H](CCC(N)=O)NC(=O)[C@@H](NC(=O)[C@H](Cc1ccccc1)NC(=O)[C@H](CCC(=O)O)NC(=O)[C@H](CCCNC(=N)N)NC(=O)[C@H](C)NC(=O)[C@H](C)NC(=O)[C@H](CCCNC(=N)N)NC(=O)[C@H](CO)NC(=O)[C@H](CC(=O)O)NC(=O)[C@H](CC(C)C)NC(=O)[C@H](Cc1ccc(O)cc1)NC(=O)[C@H](CCCCN)NC(=O)[C@H](CO)NC(=O)[C@H](CC(C)C)NC(=O)[C@H](CC(=O)O)NC(=O)[C@H](CO)NC(=O)[C@@H](NC(=O)[C@H](Cc1ccccc1)NC(=O)[C@@H](NC(=O)CNC(=O)[C@H](CCC(N)=O)NC(=O)C(C)(C)NC(=O)[C@@H](N)Cc1c[nH]cn1)[C@@H](C)O)[C@@H](C)O)C(C)C)C(=O)N[C@@H](CC(N)=O)C(=O)N[C@@H](CCCCNC(=O)CC[C@H](NC(=O)CC[C@H](NC(=O)COCCOCCNC(=O)COCCOCCNC(=O)CC[C@H](NC(=O)CCCCCCCCCCCCCCCCC(=O)O)C(=O)O)C(=O)O)C(=O)O)C(N)=O

Experiments:
human GLP-1 receptor [1] = target: T1, human GLP-1 receptor (human, UniProt P43220 24-463); assay: displacement of 125I-GLP-1(7-36)NH2, membranes with human GLP-1R, SPA
T1 construct: whole, on cells; the potency assay used whole cells (clone FCW467-12A/KZ10-1)
Experimental: (§1) The receptor binding of each compound to the human GLP-1 receptor was measured in a displacement binding assay. […] Each derivative was added in a series of concentrations to isolated membranes containing the human GLP-1 receptor and displacement of the labelled ligand was monitored. The receptor binding was reported as the concentration at which half of the labelled ligand was displaced from the receptor, the IC₅₀ value.

human glucagon receptor [2] = target: T2, human glucagon receptor (human, UniProt P47871 26-477); assay: displacement of 125I-glucagon, membranes with human glucagon receptor, SPA
T2 construct: whole, on cells; the potency assay used whole cells (clone pLJ6'-4-25); also called GlucR; hGCGR
T2 sequence (P47871 26-477): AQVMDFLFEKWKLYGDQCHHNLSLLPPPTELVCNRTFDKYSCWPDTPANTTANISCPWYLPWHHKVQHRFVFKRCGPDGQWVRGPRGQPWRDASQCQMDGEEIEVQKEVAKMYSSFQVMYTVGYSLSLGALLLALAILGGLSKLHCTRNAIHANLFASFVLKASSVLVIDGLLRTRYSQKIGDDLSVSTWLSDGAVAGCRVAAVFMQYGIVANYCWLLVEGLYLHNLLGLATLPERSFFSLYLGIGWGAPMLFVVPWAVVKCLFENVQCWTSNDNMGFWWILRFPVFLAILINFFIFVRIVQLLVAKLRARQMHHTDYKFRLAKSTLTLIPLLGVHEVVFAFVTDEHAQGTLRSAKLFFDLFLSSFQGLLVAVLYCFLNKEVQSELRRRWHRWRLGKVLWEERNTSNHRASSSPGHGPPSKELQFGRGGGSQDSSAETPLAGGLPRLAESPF
Experimental: as §1, with “human glucagon” for “human GLP-1”, “ligand is” for “ligand was”

human glucagon receptor [3] = target: T2, human glucagon receptor; assay: cell-based or functional assay
human GLP-1 receptor [4] = target: T1, human GLP-1 receptor; assay: cell-based or functional assay

Binder	IC50 (human GLP-1 receptor [1])	IC50 (human glucagon receptor [2])	EC50 GlucR, CRE luciferase reporter gene assay in BHK cells (human glucagon receptor [3])	EC50 GLP-1R, CRE luciferase reporter gene assay in BHK cells (human GLP-1 receptor [4])
B1	0.2 nM	3.9 nM	0.01 nM	0.008 nM
B2	0.3 nM	51 nM	0.24 nM	0.0027 nM
B3	1.1 nM	6.7 nM	1.13 nM	0.0296 nM
B4	0.9 nM	8.5 nM	0.0399 nM	0.0047 nM
B5	0.5 nM	17 nM	0.044 nM	0.006 nM
B6	0.6 nM	10.4 nM	0.047 nM	0.005 nM
B7	0.2 nM	381 nM	0.699 nM	0.0032 nM
